The record followed here is patent publication US7101851 (dated 2006).

Bridges are numbered along the chain shown (N, C = ends). Where no end group is shown, it is not given here.

The target in this experiment is T1, alpha subunit of the human FcεRI receptor (IgE high affinity receptor), expressed on Chinese hamster ovary … (human, UniProt P12319 26-257).
T1 construct: whole, on cells; also called CHO FcεRI+ cells; FcεRIα
T1 sequence (looked up): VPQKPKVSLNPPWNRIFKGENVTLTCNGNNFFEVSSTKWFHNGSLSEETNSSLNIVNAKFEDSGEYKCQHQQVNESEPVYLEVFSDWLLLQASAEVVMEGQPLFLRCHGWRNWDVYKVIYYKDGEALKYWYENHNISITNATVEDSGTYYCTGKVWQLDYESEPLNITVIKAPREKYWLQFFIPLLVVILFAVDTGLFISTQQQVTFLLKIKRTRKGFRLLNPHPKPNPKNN
The experiment is described as follows: inhibition of 125I-IgE binding to CHO cells expressing human FcεRI alpha; competitor IgE. On the procedure: To determine the ability of peptides to inhibit IgE binding to FcεRI, a cell-based binding assay was used with radiolabeled IgE. Chinese hamster ovary cells expressing the alpha subunit of the human FcεRI receptor were cultured overnight in Falcon 96 well microtiter plates at a concentration of 5 ×10^4 cells per well. The following day the cells were rinsed three times with PBS and then once with F12/DMEM. Peptide stocks were reconstituted in 100 mM Hepes buffered water, pH 7.2, at a concentration of 5 mg/mL. Working concentrations of the peptide were diluted in assay buffer (see below). 75 uL of a desired concentration of peptide was added to the top row of a separate 96 well microtiter plate and serially diluted 1:3 in 50 uL of the assay buffer (F12/DMEM, 1% BSA, 0.05% NaN_3 and 0.025 mM Hepes pH 7.2). Starting concentrations ranged from 50–500 uM. Next, 50 uL of the diluted peptide was transferred to the 96 microtiter well plate containing a monolayer of CHO FcεRI+ cells. […] Cells were […]

B1: IGE119 (peptide)
peptide: NGCPGWCYVGGKALCPDVCYV-NH2
modifications: disulfide 7-15, 3-19; N-terminus assumed
SMILES: CC(C)C[C@@H]1NC(=O)[C@H](C)NC(=O)[C@H](CCCCN)NC(=O)CNC(=O)CNC(=O)[C@H](C(C)C)NC(=O)[C@H](Cc2ccc(O)cc2)NC(=O)[C@@H]2CSSC[C@H](NC1=O)C(=O)N1CCC[C@H]1C(=O)N[C@@H](CC(=O)O)C(=O)N[C@@H](C(C)C)C(=O)N[C@H](C(=O)N[C@@H](Cc1ccc(O)cc1)C(=O)N[C@H](C(N)=O)C(C)C)CSSC[C@H](NC(=O)CNC(=O)[C@@H](N)CC(N)=O)C(=O)N1CCC[C@H]1C(=O)NCC(=O)N[C@@H](Cc1c[nH]c3ccccc13)C(=O)N2
Consider B1, for which the IC50 – broadly, the concentration at which inhibition is half-maximal – is 1400 nM.
Molecule VQCPHFCYVGGKALCPDVCYV-NH2 (not fully specified (bridges); cysteine pairing not given here) [IGE122] had an IC50 of 170 nM.
Then VQCPHFCYVGGKALCPDKCYT-NH2 (cysteine pairing not given here) [IGE148], with 94 nM.
For VQCPHFCYVGGKALCPDPCYV-NH2 (cysteine pairing not given here) [IGE149], the half-maximal inhibitory concentration (IC50) stood at 166 nM.
Then VQCPHFCYVGGKALCPDVCDV-NH2 (not fully specified (bridges); cysteine pairing not given here) [IGE150], with 1230 nM; and VQCPHFCYVGGKALCPDKCYV-NH2 (cysteine pairing not given here) [IGE147], with 158 nM.

B2: IGE037 (peptide)
peptide: ALCPAVCYV-NH2
modifications: disulfide 3-7 (inferred); also: synthesized as monomer, spontaneously formed a dimer
Molecule B2 gave an IC50 of 251000 nM. This IC50 is about 1600-fold higher than that of the molecule before.

B3: IGE089 (peptide)
peptide: ALCPAVCYV-NH2
modifications: also: antiparallel disulfide-linked homodimer, interchain C3-C7' and C7-C3'
notes: also called antiparallel covalent dimer of IGE037
Regarding B3, the IC50 was determined as 64000 nM.
The molecule VVCPNMCYVGGKALCPDVCYV-NH2 (not fully specified (bridges); cysteine pairing not given here) [IGE121] registered an IC50 of 340 nM.

B4: IGE083 (peptide)
peptide: ALCPAVCYVGGKALCPDVCYV-NH2
modifications: disulfide 7-15, 3-19; N-terminus assumed
SMILES: CC(C)C[C@H](NC(=O)[C@H](C)N)C(=O)N[C@H]1CSSC[C@@H](C(=O)N[C@@H](Cc2ccc(O)cc2)C(=O)N[C@H](C(N)=O)C(C)C)NC(=O)[C@H](C(C)C)NC(=O)[C@H](CC(=O)O)NC(=O)[C@@H]2CCCN2C(=O)[C@@H]2CSSC[C@H](NC(=O)[C@H](C(C)C)NC(=O)[C@H](C)NC(=O)[C@@H]3CCCN3C1=O)C(=O)N[C@@H](Cc1ccc(O)cc1)C(=O)N[C@@H](C(C)C)C(=O)NCC(=O)NCC(=O)N[C@@H](CCCCN)C(=O)N[C@@H](C)C(=O)N[C@@H](CC(C)C)C(=O)N2
Molecule B4 gave a concentration for half-maximal inhibition (IC50) of 1100 nM.
Molecule IVCPRLCYVGGKALCPDVCYV-NH2 (not fully specified (bridges); cysteine pairing not given here) [IGE120] showed an IC50 of 290 nM.
As to IVCARLCYVGGKALCPDVCYV-NH2 (not fully specified (bridges); cysteine pairing not given here) [IGE127], the concentration for half-maximal inhibition (IC50) is 13000 nM.
